Test results from article PMC9585320 (Frontiers in Molecular Biosciences, 2022).

Experiments:
[1] = molecular target: MazF3 toxin, (His)6MazF(FLAG)3 (Mycobacterium tuberculosis) (UniProt P9WIH8); assay: MST
[2] = molecular target: MazF9 toxin, (His)6MazF(FLAG)3 (Mycobacterium tuberculosis) (UniProt P71650); assay: MST
[3] = molecular target: MazE3 antitoxin, full length, (His)6MazE(FLAG)3 (Mycobacterium tuberculosis) (UniProt O53451); assay: SEC-MALS
[4] = molecular target: MazE9 antitoxin, full length, (His)6MazE(FLAG)3 (Mycobacterium tuberculosis) (UniProt P0CL61); assay: SEC-MALS
[5] = molecular target: MazF6 toxin WT, purified (Mycobacterium tuberculosis) (UniProt P9WII2); assay: SEC-MALS
[6] = molecular target: MazF9 toxin, (His)6MazF(FLAG)3 (Mycobacterium tuberculosis) (UniProt P71650); assay: SEC-MALS
[7] = molecular target: the molecule itself; assay: SEC-MALS
[8] = molecular target: MazE3 library; assay: flow cytometry on cells

MazF9 toxin, (His)6MazF(FLAG)3 (Mycobacterium tuberculosis), sequence (P71650 whole entry): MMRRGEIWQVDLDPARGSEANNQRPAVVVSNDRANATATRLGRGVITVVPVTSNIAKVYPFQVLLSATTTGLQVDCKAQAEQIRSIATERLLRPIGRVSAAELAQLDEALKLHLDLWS

C-terminal MazE3 peptide (residues 72-106) (from UniProt O53451 72-106)
Kd [1]: 299 nM | Kd [2]: 200 nM

C-terminal MazE9 peptide (residues 43-76) (from UniProt P0CL61 43-76)
Kd [2]: 5.7 nM

MazE3 antitoxin, full length, (His)6MazE(FLAG)3 (from UniProt O53451 1-106) (natural protein)
stoichiometry N [3]: 2

MazE9 antitoxin, full length, (His)6MazE(FLAG)3 (from UniProt P0CL61 1-76) (natural protein)
stoichiometry N [4]: 2 | Kd [2]: 8.9 nM

MazF6 toxin WT, purified (from UniProt P9WII2 1-114) (natural protein)
stoichiometry N [5]: 2

MazF9 toxin, (His)6MazF(FLAG)3 (from UniProt P71650 1-118) (natural protein)
stoichiometry N [6]: 2

B1: MazF3 toxin, (His)6MazF(FLAG)3 (natural protein)
chain: MRPIHIAQLDKARPVLILTREVVRPHLTNVTVAPITTTVRGLATEVPVDAVNGLNQPSVVSCDNTQTIPVCDLGRQIGYLLASQEPALAEAIGNAFDLDWVVA
stoichiometry N [7]: 2 | Kd [8]: 1.7 nM
